Laboratory results published in US7799901B2, “Modulators of the function of FAS receptors and other proteins” (Yeda Research and Development Co. Ltd., priority 1995, dated 2010).

T1: FAS-IC with replacement mutations at position 225 (Ile) (Mus musculus, UniProt P25446, I246A)
T1 construct: four constructs of the mouse Fas-IC including two full-length constructs; expressed in transfected cells; host or cells: SFY526 yeast
T1 sequence (P25446 187-327 I246A): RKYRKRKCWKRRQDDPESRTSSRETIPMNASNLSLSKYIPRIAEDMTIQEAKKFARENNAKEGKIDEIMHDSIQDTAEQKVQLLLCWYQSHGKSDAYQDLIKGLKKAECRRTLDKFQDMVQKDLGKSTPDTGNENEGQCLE

T2: MORT-1 (Homo sapiens, UniProt Q13158, G32V)
T2 sequence (Q13158 with tags, fused parts or gaps G32V): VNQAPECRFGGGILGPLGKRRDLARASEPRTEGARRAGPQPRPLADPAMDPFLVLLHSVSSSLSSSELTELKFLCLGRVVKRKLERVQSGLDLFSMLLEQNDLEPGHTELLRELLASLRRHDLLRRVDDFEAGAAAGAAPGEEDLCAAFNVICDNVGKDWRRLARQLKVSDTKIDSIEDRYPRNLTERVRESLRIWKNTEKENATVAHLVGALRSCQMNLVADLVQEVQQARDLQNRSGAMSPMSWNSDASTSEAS

B1: MACHα1 (C360S): MACHα1 mutant in which the catalytic cysteine Cys360 is replaced by Ser (protein)
chain: MDFSRNLYDIGEQLDSEDLASLKFLSLDYIPQRKQEPIKDALMLFQRLQEKRMLEESNLSFLKELLFRINRLDLLITYLNTRKEEMERELQTPGRAQISAYRVMLYQISEEVSRSELRSFKFLLQEEISKCKLDDDMNLLDIFIEMEKRVILGEGKLDILKRVCAQINKSLLKIINDYEEFSKERSSSLEGSPDEFSNGEELCGVMTISDSPREQDSESQTLDKVYQMKSKPRGYCLIINNHNFAKAREKVPKLHSIRDRNGTHLDAGALTTTFEELHFEIKPHDDCTVEQIYEILKIYQLMDHSNMDCFICCILSHGDKGIIYGTDGQEAPIYELTSQFTGLKCPSLAGKPKVFFIQASQGDNYQKGIPVETDSEEQPYLEMDLSSPQTRYIPDEADFLLGMATVNNCVSYRNPAEGTWYIQSLCQSLRERCPRGDDILTILTEVNYEVSNKDDKKNMGKQMPQPTFTLRKKLVFPSD
B2: MORT-1: Mediator of Receptor-induced Toxicity; protein binding the intracellular domain of FAS-R, SEQ ID NO:2 (protein)
chain: T2 sequence (Q13158 with tags, fused parts or gaps G32V)

Tests used:
[1] = test system: Fas/APO1-induced death of HeLa cells; assay: Death of HeLa cells expressing Fas/APO1 induced by anti-Fas/APO1 antibody and cycloheximide; assay type: cell-based, human; settings: HeLa cells transiently expressing Fas/APO1; CH11 0.5 μg/ml, cycloheximide 10 μg/ml
Procedure: In brief, 293-EBNA cells, MCF7 human breast carcinoma cells and HeLa HtTA-1 cells were grown in Dulbecco's modified Eagle's minimal essential medium supplemented with 10% fetal calf serum, nonessential amino acids, 100 U/ml penicillin and 100 μg/ml streptomycin. Cell tissue culture dishes (5×10^5 293-EBNA cells, 3×10^5 s MCF7 cells or 3×10^5 HeLa cells in 6-cm dishes) were transiently transfected, using the calcium phosphate precipitation method, with the cDNAs of the indicated proteins together with the β-galactosidase expression vector. In the experiments presented in FIGS. 14A-D and 15, each dish was transfected with 3.5 μg of the indicated MACH construct and 1.5 μg of pSV-β-gal. In the experiments presented in FIGS. 16A-D and 17-19, each dish was transfected with 2.5 μg of the indicated MACH or MORT1 construct (or, as control, empty vector) and 1.5 μg of pSV-β-gal. The cells were rinsed 6 to 10 h after transfection. The 293-EBNA and MCF7 cells were incubated for a further 18 h without additional treatment. The HeLa cells were incubated for 26 h after transfection and-then for 5 h in the presence of either anti-Fas.APO1 antibody (CH11, 0.5 μg/ml) or TNF (100 ng/ml), together with cycloheximide (10 μg/ml). The extent of cell death at the end of the incubation periods was assessed by determination of β-galactosidase expression, as described by Kumar et al, 1994.
The HeLa cells were made responsive to Fas/APO1 by transient expression of this receptor. […] These protective effects indicate that MACHα is a necessary component of both the Fas/APO1- and the p55-R-induced signaling cascades for cell death.
In particular, FIGS. 16A-D show morphology of 293-EBNA cells in which cell death was induced by transient expression of a chimera comprised of the extracellular domain of the p55-R (amino acids 1-168) fused to the transmembrane and intracellular domains of Fas/APO1 (amino acids 153-319) (p55-Fas chimera) (FIGS. 16A and 16B), or by expression of the p55-R (FIGS. 16C and 16D), and of cells that were protected from these cytotoxic effects by their simultaneous transfection with MACHα1 (C360S) (FIGS. 16B and 16D). Photographs were taken 26 h after transfection. FIG. 17 illustrates the quantification of death induced in 293-EBNA cells by their transfection with p55-Fas chimera or with p55-R, together with an empty vector, a MORT1 deletion mutant lacking the MACH-binding region (MORT1 (92-208)), or MACHα molecules containing a nonfunctional CED3/ICE region. […] Data are from at least two independent experiments and are expressed as in FIGS. 14A-F and 15.

[2] = biological target: T1, FAS-IC with replacement mutations at position 225 (Ile); assay: Two-hybrid test of MORT-1 binding (FIG. 1), FAS-IC mutated at position 225; settings: lpr^eg mutation site
Text: To isolate proteins interacting with the intracellular domain of the FAS-R, the yeast two-hybrid system was used (Fields and Song, 1989). […] In this system, the genes for the candidate interacting proteins are cloned into separate expression vectors. In one expression vector, the sequence of the one candidate protein is cloned in phase with the sequence of the GAL4 DNA-binding domain to generate a hybrid protein with the GAL4 DNA-binding-domain, and in the other vector, the sequence of the second candidate protein is cloned in phase with the sequence of the GAL4 activation domain to generate a hybrid protein with the GAL4-activation domain. The two hybrid vectors are then co-transformed into a yeast host strain having a lacZ or HIS3 reporter gene under the control of upstream GAL4 binding sites. Only those transformed host cells (cotransformants) in which the two hybrid proteins are expressed and are capable of interacting with each other, will be capable of expressing the reporter gene. In the case of the lacZ reporter gene, host cells expressing this gene will become blue in color when X-gal is added to the cultures. […]
In FIG. 1, there is depicted the interaction of the proteins encoded by the Gal4 DNA binding domain and activation-domain constructs (pGBT9 and pGAD-GH) within transfected SFY526 yeasts as assessed by β-galactosidase expression filter assay. […]

MORT-1 = biological target: T2, MORT-1; assay: Two-hybrid test (FIG. 1), binding to full-length MORT-1; parameters: expressed in transfected cells; host or cells: SFY526 yeast
Text: To isolate proteins interacting with the intracellular domain of the FAS-R, the yeast two-hybrid system was used (Fields and Song, 1989). […] In this system, the genes for the candidate interacting proteins are cloned into separate expression vectors. In one expression vector, the sequence of the one candidate protein is cloned in phase with the sequence of the GAL4 DNA-binding domain to generate a hybrid protein with the GAL4 DNA-binding-domain, and in the other vector, the sequence of the second candidate protein is cloned in phase with the sequence of the GAL4 activation domain to generate a hybrid protein with the GAL4-activation domain. The two hybrid vectors are then co-transformed into a yeast host strain having a lacZ or HIS3 reporter gene under the control of upstream GAL4 binding sites. Only those transformed host cells (cotransformants) in which the two hybrid proteins are expressed and are capable of interacting with each other, will be capable of expressing the reporter gene. In the case of the lacZ reporter gene, host cells expressing this gene will become blue in color when X-gal is added to the cultures.
(b) retransforming the plasmid DNA and original FAS-IC hybrid plasmid and control plasmids described in (a) into yeast host cells of strain SFY526 and determining the LACZ^+ activity (effectivity of β-gal formation, i.e., blue color formation).
In FIG. 1, there is depicted the interaction of the proteins encoded by the Gal4 DNA binding domain and activation-domain constructs (pGBT9 and pGAD-GH) within transfected SFY526 yeasts as assessed by β-galactosidase expression filter assay. The DNA-binding-domain constructs included four constructs of the human Fas-IC, four constructs of the mouse Fas-IC including two full-length constructs having […] or Ile to Ala replacement mutations at position 225 (I225N and I225A, respectively), and three MORT-1 constructs, all of which are shown schematically on the left hand side of FIG. 1. […]

| Molecule | protection against death induced by anti-Fas/APO1 antibody and cycloheximide [1] | binding to FAS-IC with replacement mutation at position 225 [2] | binding to full-length MORT-1 in two-hybrid test (MORT-1) |
| --- | --- | --- | --- |
| B1 | prevention | – | – |
| B2 | – | prevents binding | binds to itself |
